Experimental findings from US20240124597A1 (Bristol-Myers Squibb, published 2024) are described below.

B1: Y12XX-hz9 (antibody, human IgG1, kappa, V domains shown)
VH: QVQLVQSGAEVKKPGSSVKVSCKASGYAFTSYWMHWVRQAPGQGLEWMGQINPSNGRSQYNEKFKTRVTITADKSTSTAYMELSSLRSEDTAVYYCARWGLQPFAYWGQGTLVTVSS
VL: DIQMTQSPSSLSASVGDRVTITCKASQDVSTAVAWYQQKPGKAPKLLIYSASYRYTGVPSRFSGSGSGTDFTFTISSLQPEDIATYYCQQHYSTPWTFGGGTKVEIKR
notes: Humanized, IgG1-P238K; supernatant sample
B2: Y12XX-hz13 (antibody, human IgG1, kappa, V domains shown)
VH: QVQLVQSGAEVKKPGSSVKVSCKASGYAFTSYWMHWVRQAPGQGLEWMGQINPSNARSQYNEKFKTRVTITADKSTSTAYMELSSLRSEDTAVYYCARWGLQPFAYWGQGTLVTVSS
VL: DIQMTQSPSSLSASVGDRVTITCKASQDVSTAVAWYQQKPGKAPKLLIYSASYRYTGVPSRFSGSGSGTDFTFTISSLQPEDIATYYCQQHYSTPWTFGGGTKVEIKR
notes: as for B1
B3: Y12XX-hz25 (antibody, human IgG1, kappa, V domains shown)
VH: QVQLVQSGAEVKKPGSSVKVSCKASGYAFTSYWMHWVRQRPGQGLEWIGQINPSNGRSQYNEKFKTRVTITADKSTSTAYMELSSLRSEDTAVYYCARWGLQPFAYWGQGTLVTVSS
VL: DIQMTQSPSFLSASVGDRVTITCKASQDVSTAVAWYQQKPGKAPKLLIYSASYRYTGVPSRFSGSGSGTDFTLTISSLQPEDFATYYCQQHYSTPWTFGGGTKVEIKR
notes: as for B1
B4: Y12XX-hz26 (antibody, human IgG1, kappa, V domains shown)
VH: QVQLVQSGAEVKKPGSSVKVSCKASGYAFTSYWMHWVRQAPGQGLEWMGQINPSQGRSQYNEKFKTRVTITADKSTSTAYMELSSLRSEDTAVYYCARWGLQPFAYWGQGTLVTVSS
VL: DIQMTQSPSFLSASVGDRVTITCKASQDVSTAVAWYQQKPGKAPKLLIYSASYRYTGVPSRFSGSGSGTDFTLTISSLQPEDFATYYCQQHYSTPWTFGGGTKVEIKR
notes: as for B1
B5: Y12XX-hz24 (antibody, human IgG1, kappa, V domains shown)
VH: QVQLVQSGAEVKKPGSSVKVSCKASGYAFTSYWMHWVRQRPGQGLEWMGQINPSNGRSQYNEKFKTRVTITADKSTSTAYMELSSLRSEDTAVYYCARWGLQPFAYWGQGTLVTVSS
VL: DIQMTQSPSFLSASVGDRVTITCKASQDVSTAVAWYQQKPGKAPKLLIYSASYRYTGVPSRFSGSGSGTDFTLTISSLQPEDFATYYCQQHYSTPWTFGGGTKVEIKR
notes: as for B1
B6: Y12XX-hz29 (antibody, human IgG1, kappa, V domains shown)
VH: QVQLVQSGAEVKKPGSSVKVSCKASGYAFTSYWMHWVRQAPGQGLEWMGFINPTTGYSEYNQKFKDRVTITADKSTSTAYMELSSLRSEDTAVYYCARWGLPPFAYWGQGTLVTVSS
VL: EIVMTQSPATLSVSPGERATLSCKASQDVSTAVAWYQQKPGQAPRLLIYSASYRYTGIPARFSGSGSGTEFTLTISSLQSEDFAVYYCQQHYSTPWTFGGGTKVEIKR
notes: as for B1
B7: Y12XX-hz17 (antibody, human IgG1, kappa, V domains shown)
VH: QVQLVQSGAEVKKPGSSVKVSCKASGYAFTSYWMHWVRQRPGQGLEWIGFINPTTGYSEYNQKFKDRVTITADKSTSTAYMELNSLRSEDTAVYYCARWGLPPFAYWGQGTLVTVSS
VL: DIQMTQSPSFLSASVGDRVTITCKASQDVSTAVAWYQQKPGKAPKLLIYSASYRYTGVPSRFSGSGSGTDFTLTISSLQPEDFATYYCQQHYSTPWTFGGGTKVEIKR
notes: as for B1
B8: Y12XX-hz10 (antibody, human IgG1, kappa, V domains shown)
VH: QVQLVQSGAEVKKPGSSVKVSCKASGYAFTSYWMHWVRQRPGQGLEWMGQINPSNGRSQYNEKFKTRVTITADKSTSTAYMELSSLRSEDTAVYYCARWGLQPFAYWGQGTLVTVSS
VL: DIQMTQSPSSLSASVGDRVTITCKASQDVSTAVAWYQQKPGKAPKLLIYSASYRYTGVPSRFSGSGSGTDFTFTISSLQPEDIATYYCQQHYSTPWTFGGGTKVEIKR
notes: as for B1
B9: Y12XX-hz23 (antibody, human IgG1, kappa, V domains shown)
VH: QVQLVQSGAEVKKPGSSVKVSCKASGYAFTSYWMHWVRQAPGQGLEWMGQINPSNGRSQYNEKFKTRVTITADKSTSTAYMELSSLRSEDTAVYYCARWGLQPFAYWGQGTLVTVSS
VL: DIQMTQSPSFLSASVGDRVTITCKASQDVSTAVAWYQQKPGKAPKLLIYSASYRYTGVPSRFSGSGSGTDFTLTISSLQPEDFATYYCQQHYSTPWTFGGGTKVEIKR
notes: as for B1
B10: Y12XX-hz15 (antibody, human IgG1, kappa, V domains shown)
VH: QVQLVQSGAEVKKPGSSVKVSCKASGYAFTSYWMHWVRQAPGQGLEWMGFINPTTGYSEYNQKFKDRVTITADKSTSTAYMELSSLRSEDTAVYYCARWGLPPFAYWGQGTLVTVSS
VL: DIQMTQSPSFLSASVGDRVTITCKASQDVSTAVAWYQQKPGKAPKLLIYSASYRYTGVPSRFSGSGSGTDFTLTISSLQPEDFATYYCQQHYSTPWTFGGGTKVEIKR
notes: as for B1
B11: Y12XX-hz27 (antibody, human IgG1, kappa, V domains shown)
VH: QVQLVQSGAEVKKPGSSVKVSCKASGYAFTSYWMHWVRQAPGQGLEWMGQINPSNARSQYNEKFKTRVTITADKSTSTAYMELSSLRSEDTAVYYCARWGLQPFAYWGQGTLVTVSS
VL: DIQMTQSPSFLSASVGDRVTITCKASQDVSTAVAWYQQKPGKAPKLLIYSASYRYTGVPSRFSGSGSGTDFTLTISSLQPEDFATYYCQQHYSTPWTFGGGTKVEIKR
notes: as for B1
B12: Y12XX-hz12 (antibody, human IgG1, kappa, V domains shown)
VH: QVQLVQSGAEVKKPGSSVKVSCKASGYAFTSYWMHWVRQAPGQGLEWMGQINPSQGRSQYNEKFKTRVTITADKSTSTAYMELSSLRSEDTAVYYCARWGLQPFAYWGQGTLVTVSS
VL: DIQMTQSPSSLSASVGDRVTITCKASQDVSTAVAWYQQKPGKAPKLLIYSASYRYTGVPSRFSGSGSGTDFTFTISSLQPEDIATYYCQQHYSTPWTFGGGTKVEIKR
notes: as for B1
B13: Y12XX-hz11 (antibody, human IgG1, kappa, V domains shown)
VH: QVQLVQSGAEVKKPGSSVKVSCKASGYAFTSYWMHWVRQRPGQGLEWIGQINPSNGRSQYNEKFKTRVTITADKSTSTAYMELSSLRSEDTAVYYCARWGLQPFAYWGQGTLVTVSS
VL: DIQMTQSPSSLSASVGDRVTITCKASQDVSTAVAWYQQKPGKAPKLLIYSASYRYTGVPSRFSGSGSGTDFTFTISSLQPEDIATYYCQQHYSTPWTFGGGTKVEIKR
notes: as for B1

The target of the assay is T1, human-CD40-monomer protein (human, UniProt P25942 21-193, limits assumed).
T1 construct: Soluble monomer generated in house, used as SPR analyte; also called hCD40; hCD40-monomer
T1 sequence (P25942 21-193 limits assumed): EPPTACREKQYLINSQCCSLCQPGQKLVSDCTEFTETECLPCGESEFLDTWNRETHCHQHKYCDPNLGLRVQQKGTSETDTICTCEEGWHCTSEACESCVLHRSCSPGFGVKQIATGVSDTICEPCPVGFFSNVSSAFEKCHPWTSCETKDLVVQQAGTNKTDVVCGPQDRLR
Nature of the assay: SPR, Ab captured on protein A, hCD40 monomer 500 and 50 nM, 1:1 fit; supernatant. Here is the method: Titer analysis was performed using Biolayer Interferometry (BLI) on an Octet RED instrument (Fortebio) by capturing antibodies from supernatant using protein A sensor tips and measuring capture response with respect to a standard curve obtained using a control antibody sample. SPR data were obtained by capturing antibodies on a protein A surface and testing the binding of 500 nM and 50 nM injections of human-CD40 analyte, using a BIAcore™ T200 instrument (GE Healthcare). The kinetic data for the two concentrations of hCD40-monomer were fit to a 1:1 Langmuir model, to yield estimates of the kinetic and affinity values for these interactions, and for comparison of the different molecules.
On the technique in general: SPR reads the build-up and loss of mass on a sensor chip optically.
In the case of B1, the Kd (as a rule, the equilibrium constant for the complex coming apart) came out at 4.6 nM; the koff (in general, a measure of how fast the partners let go of each other) was found to be 0.00089 s⁻¹; the kon (in general, a measure of how fast the partners come together) was 200000 M⁻¹ s⁻¹.
With B2, the Kd stood at 3.9 nM, the koff amounted to 0.00083 s⁻¹ and the kon is 210000 M⁻¹ s⁻¹.
For the molecule B3, the affinity, expressed as Kd, was 3.4 nM; the koff stood at 0.00064 s⁻¹; the on-rate constant (kon) is 190000 M⁻¹ s⁻¹.
Regarding B4, binding was put at a Kd of 7.5 nM, the dissociation rate constant (koff) was 0.0012 s⁻¹ and the kon worked out at 160000 M⁻¹ s⁻¹.
For B5, the Kd was determined as 4.4 nM, the dissociation rate constant (koff) amounted to 0.00082 s⁻¹ and the on-rate (kon) is 190000 M⁻¹ s⁻¹.
With B6, the dissociation constant Kd was 0.069 nM, the off-rate (koff) was 2.6e-06 s⁻¹ and the on-rate (kon) came out at 37000 M⁻¹ s⁻¹.
Take B7: binding was put at a Kd of 210 nM, the koff amounted to 0.077 s⁻¹ and the kon turned out to be 370000 M⁻¹ s⁻¹.
With B8, the dissociation constant Kd stood at 3.6 nM, the koff turned out to be 0.00073 s⁻¹ and the on-rate constant (kon) came out at 200000 M⁻¹ s⁻¹.
For B9, in that order: 3.2 nM, 0.00064 s⁻¹ and 200000 M⁻¹ s⁻¹.
The corresponding values for B10 are 8 nM, 0.00013 s⁻¹ and 16000 M⁻¹ s⁻¹.
For the molecule B11, binding was put at a Kd of 4.7 nM, the off-rate (koff) came to 0.00088 s⁻¹ and the kon is 190000 M⁻¹ s⁻¹.
For the molecule B12, the Kd was found to be 8.3 nM, the dissociation rate constant (koff) came out at 0.0014 s⁻¹ and the on-rate constant (kon) stood at 170000 M⁻¹ s⁻¹.
B13 had a dissociation constant (Kd) of 5 nM, a dissociation rate constant (koff) of 0.00088 s⁻¹ and a kon of 180000 M⁻¹ s⁻¹.
